The target in assay [1] is T1, Human CD47, soluble His-tagged extracellular domain (AcroBiosystems Cat# CD7-H82E9) (human, UniProt Q08722 19-139).
T1 construct: Bought reagent; also called biotinylated human CD47 His-Avitag; not shown: His tag / His-Avitag of the bought reagent
The experiment in a line: phage display selection and phage ELISA on biotinylated human CD47 extracellular domain. For orientation: ELISA stands for enzyme-linked immunosorbent assay.

The target of assay [2] is T2, Human PD-L1, soluble His-tagged (AcroBiosystems Cat# PD1-H82E5) (human, UniProt Q9NZQ7 19-238).
T2 construct: The Carterra reagent PD1-H82E5 is only called a soluble, His-tagged antigen; The Biacore reagent is not specified; also called PD-L1/B7-H1; not shown: His tag of the bought reagent
T2 sequence (Q9NZQ7 19-238): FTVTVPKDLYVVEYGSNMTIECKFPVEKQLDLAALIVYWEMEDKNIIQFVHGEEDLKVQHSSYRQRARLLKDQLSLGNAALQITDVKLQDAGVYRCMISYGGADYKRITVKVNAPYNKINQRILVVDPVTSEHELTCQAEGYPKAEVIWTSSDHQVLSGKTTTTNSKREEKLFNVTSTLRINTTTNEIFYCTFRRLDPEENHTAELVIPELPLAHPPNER
Briefly: phage display selection and phage ELISA on biotinylated human PD-L1 extracellular domain, then affinity maturation.

Assay [3] has as its target T3, Human CD47 on the cell surface (tumor cell lines; human red blood cells) (human, UniProt Q08722 19-323). The experiment in a line: cell-based or functional assay.
In assay [4] the target is T4, Human PD-L1 on the cell surface (tumor cell lines) (human, UniProt Q9NZQ7 19-290). Briefly: cell-based or functional assay.
T4 sequence (Q9NZQ7 19-290 limits assumed): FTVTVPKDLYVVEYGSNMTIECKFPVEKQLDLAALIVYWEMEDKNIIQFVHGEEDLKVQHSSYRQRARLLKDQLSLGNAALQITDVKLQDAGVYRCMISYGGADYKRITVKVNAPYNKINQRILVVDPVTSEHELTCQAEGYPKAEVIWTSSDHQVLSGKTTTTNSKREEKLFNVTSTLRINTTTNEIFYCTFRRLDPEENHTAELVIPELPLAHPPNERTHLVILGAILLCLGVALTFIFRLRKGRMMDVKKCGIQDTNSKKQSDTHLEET
In assay [5] the target is T3, Human CD47 on the cell surface (tumor …). The experiment in a line: cell-based or functional assay. The source holds these as a separate data set.
Assay [6] deals with T4, Human PD-L1 on the cell surface (tumor …). Briefly: cell-based or functional assay. This is another data set of the same source.
Assay [7] concerns the target T5, CD47 and PD-L1 co-expressed on the surface of tumor cells (PDL1-MDA-MB-231, NCI-H292, HT-1080) (human, UniProt Q08722 19-323; Q9NZQ7 19-290). Briefly: cell-based or functional assay.
In assay [8] the target is T1, Human CD47, soluble His-tagged …. The experiment in a line: Biacore (SPR); format not described.
The target of assay [9] is T6, Cynomolgus CD47, soluble His-tagged (AcroBiosystems Cat# CD7-C52H1) (cynomolgus, UniProt A0A2K5X523 19-139).
T6 construct: Soluble antigen; also called Cyno CD47; cyno-CD47
Briefly: Biacore (SPR); format not described. (SPR reads the build-up and loss of mass on a sensor chip optically.)

Assay [10] concerns the target T2, Human PD-L1, soluble His-tagged …. The experiment in a line: Biacore (SPR); format not described.
Assay [11] concerns the target T7, Cynomolgus PD-L1, soluble His-tagged (AcroBiosystems Cat# PD1-C52H4) (cynomolgus, UniProt G7PSE7 19-239).
T7 construct: Soluble antigen; also called Cyno PD-L1; cyno-PD-L1
Briefly: Biacore (SPR); format not described.

In assay [12] the target is T5, CD47 and PD-L1 co-expressed on the …. The experiment in a line: flow cytometry (MFI) on HT-1080 cells endogenously expressing CD47 and PD-L1. In general terms: A flow cytometer gives signals particle by particle.
The target is the same in assay [13]. Briefly: flow cytometry (MFI) on NCI-H292 cells endogenously expressing CD47 and PD-L1.
The target in assay [14] is T1, Human CD47, soluble His-tagged …. The experiment in a line: Carterra biosensor kinetics; bsAb1 coupled to HC30M chip, soluble His-tagged antigen 1.2-900 nM, global fit. On the procedure:
(§1) To obtain accurate kinetic constants, the bispecific antibody was prepared at concentrations ranging from 1 to 10 μg/mL in 10 mM NaOAc (pH 4.25 or pH 4.5), and the coupling reaction was performed in running buffer (25 mM MES, pH 5.5) using multiple chip locations for each concentration. In the next association step, the binding interaction of antigen to the coupled antibody was measured. In general, each binding event consisted of a one minute baseline interval followed by a 5 minute antigen injection and a 15 minute dissociation with HBSTE buffer (10 mM HEPES, 150 mM NaCl, 3 mM EDTA, 0.01% Tween-20, pH 7.4) as running buffer. […] Antigens for binding studies were then prepared by reconstituting according to manufacturer recommendation. To obtain accurate kinetic constants, the reconstituted antigens were subsequently diluted into HBSTE buffer to final concentrations ranging from 1.2 nM to 900 nM. Injections of the antigens at each concentration were performed in series. In the next dissociation step, a regeneration process consisting of three times of injection for 25 seconds with 0.1 M glycine (pH 2.8), 1 M NaCl was performed between each antigen binding event, by which the bound antigen on the surface of the chip was allowed to dissociate. Carterra Kinetics analysis package was used to calculate rate constants (kₐ, kd) and corresponding equilibrium dissociation constants (Kd). Binding data were first recovered by double-referencing to subtract the closest reference cell and blank injection.

Assay [15] concerns the target T6, Cynomolgus CD47, soluble His-tagged …. Described as above. On the procedure: as §1
The target in assay [16] is T2, Human PD-L1, soluble His-tagged …. The assay is described as above. On the procedure:
as §1

Assay [17] addresses T7, Cynomolgus PD-L1, soluble His-tagged …. Described as above. On the procedure: as §1
The target of assay [18] is T5, CD47 and PD-L1 co-expressed on the …. The experiment in a line: flow cytometry, MFI on NCI-H292 tumor cells mixed with human RBC (tumor cells labelled with CellTrace Violet).
For assay [19] the target is unchanged. Briefly: flow cytometry (MFI) on PDL1-MDA-MB-231 cells co-expressing CD47 and PD-L1; PDL1-MDA-MB-231 cells carrying both CD47 (~500,000) and PD-L1 (~1,500,000).

T5 sequence (Q08722 19-323 limits assumed, chain 1 of 2): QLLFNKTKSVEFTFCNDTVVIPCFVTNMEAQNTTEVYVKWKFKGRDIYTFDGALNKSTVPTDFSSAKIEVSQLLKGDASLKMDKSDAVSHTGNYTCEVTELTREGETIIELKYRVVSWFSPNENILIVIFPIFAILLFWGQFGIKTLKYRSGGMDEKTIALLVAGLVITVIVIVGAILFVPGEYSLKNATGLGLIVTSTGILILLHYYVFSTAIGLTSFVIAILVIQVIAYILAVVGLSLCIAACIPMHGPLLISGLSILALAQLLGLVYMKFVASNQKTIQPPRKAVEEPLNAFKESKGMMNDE
T5 sequence (Q9NZQ7 19-290 limits assumed, chain 2 of 2): as the sequence (Q9NZQ7 19-290 limits assumed) above
T7 sequence (G7PSE7 entry or part of it): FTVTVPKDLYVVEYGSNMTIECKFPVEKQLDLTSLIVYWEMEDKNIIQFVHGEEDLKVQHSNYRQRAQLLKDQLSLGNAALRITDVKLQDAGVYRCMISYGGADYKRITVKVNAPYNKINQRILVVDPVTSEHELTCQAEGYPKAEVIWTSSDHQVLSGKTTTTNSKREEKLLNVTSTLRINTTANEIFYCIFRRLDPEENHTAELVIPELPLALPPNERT
T1 sequence (Q08722 19-139): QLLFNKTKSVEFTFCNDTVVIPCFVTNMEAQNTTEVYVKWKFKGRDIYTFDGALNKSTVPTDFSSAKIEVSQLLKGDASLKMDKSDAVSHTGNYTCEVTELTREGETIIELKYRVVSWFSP
T3 sequence (Q08722 19-323 limits assumed): as the sequence (Q08722 19-323 limits assumed, chain 1 of 2) above

B1: Antibody mAb-C (selected CD47 binding antibody) (antibody, IgG1, V domains shown)
VH: EVQLVESGGGLVQPGGSLRLSCAASGFTFSWYYIHWVRQAPGKGLEWVAYIDSSSGYTEYADSVKGRFTISADTSKNTAYLQMNSLRAEDTAVYYCARGGYLGMDYWGQGTLVTVSS
VL: DIQMTQSPSSLSASVGDRVTITCRASQSVSSAVAWYQQKPGKAPKLLIYSASSLYSGVPSRFSGSRSGTDFTLTISSLQPEDFATYYCQQSRSRPRTFGQGTKVEIK
notes: Selected as a Fab on phage
Regarding B1, the binding result in assay [1] is reported as “binds”.

B2: Antibody mAb-P (selected and then affinity matured PD-L1 binding antibody) (antibody, human IgG1, V domains shown)
VH: EVQLVESGGGLVQPGGSLRLSCAASGFTFRSYYIHWVRQAPGKGLEWVATISSYGVFTYYADSVKGRFTISADTSKNTAYLQMNSLRAEDTAVYYCARGTTLTPVLDYWGQGTLVTVSS
VL: DIQMTQSPSSLSASVGDRVTITCRASQSVSSAVAWYQQKPGKAPKLLIYSASSLSSGVPSRFSGSRSGTDFTLTISSLQPEDFATYYCQQFGAEPITFGQGTKVEIK
For the molecule B2, in assay [2], the binding result is reported as “binds”.

B3: bsAb1 (mAb-C x mAb-P in an exemplary format; bispecific anti-CD47 x anti-PD-L1 antibody of four polypeptide chains) (bispecific antibody)
chain 1: not shown
chain 2: EVQLVESGGGLVQPGGSLRLSCAASGFTFSWYYIHWVRQAPGKGLEWVAYIDSSSGYTEYADSVKGRFTISADTSKNTAYLQMNSLRAEDTAVYYCARGGYLGMDYWGQGTLVTVSSAQPREPQVYTLPPCRDWLTKNQVSLTCLVKGFYPSDIAVEWESNGQPENNYKTTPPVLDSDGSFFLYSKLTVDKSRWQQGNVFSCSVMHEALHNHYTQKSLSLSPGK
chain 3: not shown
chain 4: EVQLVESGGGLVQPGGSLRLSCAASGFTFRSYYIHWVRQAPGKGLEWVATISSYGVFTYYADSVKGRFTISADTSKNTAYLQMNSLRAEDTAVYYCARGTTLTPVLDYWGQGTLVTVSSASTKGPSVFPLAPSSKSTSGGTAALGCLVKDYFPEPVTVSWNSGALTSGVHTFPAVLQSSGLYSLSSVVTVPSSSLGTQTYICNVNHKPSNTKVDKKVEPKSC
notes: Chains 1+2 form the CD47 arm (mAb-C), chains 3+4 the PD-L1 arm (mAb-P); also called the selected bispecific antibody
On to B3, for which, in assay [3], the “EC50 of inhibiting CD47/SIRPα signaling in PDL1-MDA-MB-231 cells (PathHunter chemiluminescent signal)” value came to 76 pM. Moreover, in assay [4], the “EC50 of inhibiting PD-1/PD-L1 interaction in PDL1-MDA-MB-231 cells (PathHunter chemiluminescent signal)” value worked out at 220 pM. For the same molecule, the “IC50, CD47/SIRPa block (PathHunter CD47/SIRPα signaling bioassay)” value in [5] came to 800 pM. In addition, the “IC50, PD-L1/PD-1 block (PathHunter PD-1/PD-L1 signaling bioassay)” value in assay [6] was determined as 500 pM. For the same molecule, the “ADCP (phagocytosis of NCI-H292 cells) EC50” value in [7] is 200 pM. Moreover, the dissociation constant Kd – broadly, the concentration at which binding is half-saturated – in [8] amounted to 21000 pM; in assay [9], 25000 pM; in [10], 50 pM; in [11], 34 pM; in assay [14], 27000 pM; in [15], 24000 pM. Moreover, the Kd in [16] came to 150 pM; in [17], 180 pM. Also, the koff (in general, a measure of how fast the partners let go of each other) was determined as 0.0141 s⁻¹ in [8]; 0.0137 s⁻¹ in [9]; 0.000164 s⁻¹ in assay [10]; 0.00012 s⁻¹ in [11]; 0.0093 s⁻¹ in assay [14]; 0.0046 s⁻¹ in assay [15]. Also, the values for the koff in [16] and in [17] were 0.00013 s⁻¹ and 0.00015 s⁻¹, respectively. In addition, the EC50 (usually the concentration giving half of the maximal effect) in assay [12] came out at 200 pM; in [13], 700 pM; in [19] it was 220 pM. Moreover, the kon (commonly the second-order rate constant of association) in assay [14] worked out at 350000 M⁻¹ s⁻¹; in assay [15], 190000 M⁻¹ s⁻¹; in [16] it was 980000 M⁻¹ s⁻¹; in assay [17] it was 890000 M⁻¹ s⁻¹. Besides, the EC50 (read off the curve) – broadly, the midpoint of the concentration-response curve – in [18] is roughly 700 pM.
